Experimental data as given in article PMC139967 (BMC Biochemistry, 2002).

Legend:
[1] = molecular target: bovine-brain calmodulin (bovine, UniProt P62157 1-149); test: other fluorescence titration
[2] = molecular target: Alexa Fluor 488 calmodulin (UniProt P62157 1-149); test: other fluorescence titration

| stoichiometry N [1] [peptide per calmodulin] | Binder | Kd [2] [nM] |
| --- | --- | --- |
| 1 | CHMKHSAVEIQSWWRGTIGRRKAA [bullfrog Myo1c IQ2 peptide] | – |
| 1 | CRKHSIATFLQARWRGYHQRQKFL [bullfrog Myo1c IQ1 peptide] | – |

| Binder | stoichiometry N [1] [peptide per calmodulin] | Kd [2] [nM] |
| --- | --- | --- |
| CKRKWAVDVVRRFIKGFIYRNQPR [bullfrog Myo1c IQ3 peptide] | 1 | 2000 |
